Laboratory results: patent US12440565 (ZSKY BIOTECH, dated 2025)

Target: CD40 on the surface of mature dendritic cells (mDC) (human, UniProt P25942 21-277)
Assay: cell-based or functional assay

Sequence of CD40 on the surface of mature dendritic cells (mDC) (P25942 21-277): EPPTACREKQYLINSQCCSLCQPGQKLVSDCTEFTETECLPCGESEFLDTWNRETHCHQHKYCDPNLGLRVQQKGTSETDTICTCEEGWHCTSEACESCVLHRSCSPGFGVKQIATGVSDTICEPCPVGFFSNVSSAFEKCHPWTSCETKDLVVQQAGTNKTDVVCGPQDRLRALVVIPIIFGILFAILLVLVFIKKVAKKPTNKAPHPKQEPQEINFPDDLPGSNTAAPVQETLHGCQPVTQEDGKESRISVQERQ

- increase rate of CD83 positive ratio over control, bispecific antibody: 19%
B1: CD40-PD-L1-IgG4 bispecific antibody (bispecific antibody)
light 1: DIQMTQSPSSLSASVGDRVTIKCQASQSISSRLAWYQQKPGKPPKLLIYRASTLASGVPSRFSGSGSGTDFTLTISSLQPEDVATYYCQCTGYGISWPIGGGTKVEIKRTVAAPSVFIFPPSDEQLKSGTASVVCLLNNFYPREAKVQWKVDNALQSGNSQESVTEQDSKDSTYSLSSTLTLSKADYEKHKVYACEVTHQGLSSPVTKSFNRGEC
heavy 1: not shown
light 2: QVQLVQSGAEVKKPGASVKVSCKASGYTFTSYWMHWVRQAPGQGLEWMGRIGPNSGFTSYNEKFKNRVTMTRDTSTSTVYMELSSLRSEDTAVYYCARGGSSYDYFDYWGQGTTVTVSSASVAAPSVFIFPPSDRKLKSGTASVVCLLNNFYPREAKVQWKVDNALQSGNSQESVTEQDSKDSTYSLSSTLTLSKADYEKHKVYACEVTHQGLSSPVTKSFNRGEC
heavy 2: DIVLTQSPASLAVSPGQRATITCRASESVSIHGTHLMHWYQQKPGQPPKLLIYAASNLESGVPARFSGSGSGTDFTLTINPVEAEDTANYYCQQSFEDPLTFGQGTKLEIKASTKGPSVFPLAPCSRSTSESTAALGCLVEDYFPEPVTVSWNSGALTSGVHTFPAVLQSSGLYSLSSVVTVPSSSLGTQTYTCNVDHKPSNTKVDEKVESKYGPPCPPCPAPEFEGGPSVFLFPPKPKDTLMISRTPEVTCVVVDVSQEDPEVQFNWYVDGVEVHNAKTKPREEQFNSTYRVVSVLTVLHQDWLNGKEYKCKVSNKGLPSSIEKTISKAKGQPREPQVCTLPPSQEEMTKNQVSLSCAVKGFYPSDIAVEWESNGQPENNYKTTPPVLDSDGSFFLVSRLTVDKSRWQEGNVFSCSVMHEALHNHYTQKSLSLSLGK
